# Experimental data from the supplement of paper PMC9170038.
# System: K4 kissing-loop RNA reporter
# Assay: apparent KD of K4 kissing-loop reporter; higher = weaker reporter binding
# Details: Eterna round: R107; input ligand: theophylline 20 uM
# Experimental: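 RNA-MaP round R107: designed RNA switches with theophylline, tryptophan, arginine or FMN aptamers are transcribed on-chip within common flanks. They are titrated with a labelled K4 kissing-loop RNA reporter in RNA-MaP buffer (100 mM Tris pH 7.5, 80 mM KCl, 4 mM MgCl2), without ligand or with the indicated ligand. Median apparent KD per design.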
# 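Note: bound reporter read as fluorescence of individual clusters on recovered sequencing chips by microscopy, with normalized cluster intensities fitted with a binding model.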
row,Sequence,apparent KD of K4 kissing-loop reporter [nM]
1,UUUUUGGAGAAUUAUAGUGAUGUUAUGAAGGAGGAUAUCUGGAGAUGGAGAAGGCCUAGUGGCUCAGGGAUGGAGGGUGGGUGGG [ExFMNA.Y],655
2,CCAUUCUUUUACGAUACCAGUCUAAUAUAUUGAAUCAAAACCCUCGCCGAGUGAUGUUCGGACCCUUGGCAGCGUCUGCGAGAGG [xwxxtkmullin],549
3,UGACUGGACUGAAGGAGCGCGAAACUCCUAGUGAUGUUAGGAUAACGAGACAAAGUCUCGACGCAGGUAGGUCGCAGUCUAGUCU,119
4,AGAGUUAUGCGAGGAUAUGCGGUUAGUACUCAAAGAGUACUAACGCAGAGUGAUGUUCUGUGAAACGCAGAAGGUGCAUAACUCA [Omei KL FMN B SS B v3],238
5,GGUAGCAUGAUGGAUACCAGUCCAAAUGGAGUGAUGUUCCAACAACAGGUUAGGCUGCUGGACCCUUGGCAGCCGUCAUGCUACC,121
6,CGGACGGUAUCGGCCGCCACUCUGAAGACAGUGAUGUUGUCCGUGCAGUAUUUAGGAAAGCCGCGGAGGACCGGGAUGCGUCACU [theeternabot_sameState_KL_Trp_B_48],253
7,AGAUGACACGGAGGAUAUCCUAAUAUGGGUGAUGUUAGCGAUGUUGAAGGUGUAGUGAUGUUAUGCGGAGAAGGCCGUGUUGUUU [BDazzled - #22 - Exc. FMN B],102
8,AAACAUUGGUCGGAUACCAGCUGAUCGGAAACGAUCUUGCUGGAGUGAUGUUCCAAGUAAAGCCCUUGGCAGCCGACCGAUGAAA [MAT - Same State Theophlline B - Mod of Eli - D20],135
9,GGUAGUGCUAGCGAUACCAGUCAUAUCGCUCUGGAGUGAUGUUCCGGAACGUGCGGAGAAGACCCUUGGCAGCGCUUGACGGUGU [Exclusion Theophylline B GF5],251
10,UGAUACCAGACGGCCGCCACUAGAGCUAGCAAAGCUAGCAAGUGAUGUUUGAGGAGUGAUGUUCCUAGGACCGGGUCUGGUAUCU [TrypBX 2 #Palindromic #SwitchBubble #StaticStem],86.8
11,GGAUAGGACACAGGAUAUGGGCUAGGCAAGAAUAACUUGUCUAGCAAAUCCAUGAGGAGUGAUGUUCCAGAAGGGUGUCCUAUCG [FmnBX 1 C11+G75],97.3

# Same assay, conditions: Eterna round: R107; input ligand: tryptophan 2.4 mM
row,Sequence,apparent KD of K4 kissing-loop reporter [nM]
1,UGUUUUUACUGAAGGAGCGGCAAUUGAUACGUAGAUAUAGUGAUGUUAUAUAAGAUAGAGAGCCAGGUAGGUCGCAGAGUGUAUC [ExArgB.aB],213
2,UUUAUAAAGUCGGCCGCCACUGGAUUUAUGUUUGUUUCGUCUGGAUCAAAGUGAUGUUUUGAGUCCAGGACCGGGACAUUUGUUA [whbob_Ex_Tryp_B_w38],113
3,UCGAACGAUGGAAGGAGCGCUCGUCAGUCCUGCGAGUGAUGUUCGUGGGUAAAUAGUCGCGAGCAGGUAGGUCGCCAUCUUGGGC [Reriat],134
4,CCAUCCGAGUCGGCCGCCACUUUGAGUGAUGUUUGGAGUCUGAGUCAACAUAAAUACUUAGUUUAAAGGACCGGGACUUCGGAUG [theeternabot_exclusion_KL_Trp_B_7],363
5,UGGAGUUGACGAAAAGUCAACUCCUGAGAUACCAGUGACGAAAGUCACCCUUGGCAGCUCACUCCCAGUGAUGUUGGUUCAUAAG [#04 K4 Theophylline A Same State],356
6,GGCACGGUGACGCGGCUGCCGUGCGCUUGGGAGGAUAUGUUUCGUGACAGAAGGCCCAGUGAUGUUGGGUCUGUUCAAAAGGACU [Edmatianri],104
7,UGACUGGAUGGAAGGAGCGCUAAACUCCUAGUGAUGUUAGGGACACGAGGCAAAGCCUCGAAGCAGGUAGGUCGCCAUCUAGUCU [FiskerMod 22 - Jieux - Same State - Arginine B],167
8,ACAGGAUCGAAAGAUCCUGAGCAGUCAAACCGAGGACCGGUACGGCCGCCACUCGGAGUGAUGUUCCGAAGACUGCAAAAUAAAA [#SwitchBubble 1],334
9,AGUAAUGAGUGAUGUUCAAUUAGUAAGGAUACCAGUAAUUCAAAAUGCCCUUGGCAGCUUAACGCUACCAAUAGAUUAAUAAUGG [First try - Theophylline A],95.5
10,UAUUCUUAUCUUAGUUGAUUUCUAAUUAAACGAGGACCGGUACGGCCGCCACUCGGUUAUGAGUGAUGUUCAUGGAAUUACAUAA [JR_SSTryptoA_Sub020],143
11,AAGUGUGUGGCGGCCGCCACUAGAAUCCAGUGAUGUUGGAGAUAUCACGUAAGUGAUAUCCAACAUAGGACCGGGCCAUAUAGAA [Same State - Tryptophan B (Freestyle 12)],95.5
12,AAUGGGUGAUAAGGAUAUCCACCUCACAAACCAAGAGUGAUGUUCGUUGGUCCAUGGACAAUAUGUGGAGAAGGUAUAGUGAUUA [theeternabot_exclusion_KL_FMN_B_48],700
13,UGUGAGCUGUCGACAAAAGUCGACUAAAACGAGGAUAUGACGAAAGUCAGAAGGCGUCAAUAAUGGAGUGAUGUUCCUGCUCACU [FmnA 9 #SwitchBubble #K4Late],401
14,GCCGCAAGGCUAGCAGCAAUAGGCGCUCGCUAGGAUAUCUGGAAACAGAGAAGGAGCUGGAGUGAUGUUUUACCUCCUUGUUAUU,657
15,GCAUCCAUGGCAGGAUAUAGGUUCGUGGAGUGAUGUUCCAUAGCCCGAGUGAUGUUCGUUAUCCGCCUAGAAGGGCCAUGGAUGC [whbob_Ex_FMNB__2th213],203
16,AGGUCACCACUACAGUGAUGUUGUAGGGAGCAGGAUAUGCAGAAAUGCAGAAGGGCUCGCUCCCGGUGACCGAAUGAAACAUUCA [Omei KL FMN A SS A v6],282
17,GUUACGCAUGGAAGGAGCGCAUGCUCAACAAUAAGCUCAGUGAUGUUGAGCAAAAUUAAAAUGCAGGUAGGUCGCCAUGUGUAAC [Ex Arginine B K4 28],555
18,GGUAGCAUGGCGGCCGCCACUGAGGCCCUAUACGAGUCCUAAACAACCUAGUGAUGUUAGGAGUCCAGGACCGGGCCAUGCUACC,440
19,AAAAGCCUACAGGAUACCAGCCGAAUACUAAAAGGCUGGAGUGAUGUUCCAGCUUGCCGCGGCCCUUGGCAGCCUAGCUGGGUGA [Soatriti],286
20,GCCAGAUAGACGGCCGCCACUUAUAAGUUUCAGUGAUGUUGGAACGGCAAAUGCCGAACACAAUAGAGGACCGGGUCAACUGGCG [Same State Tryptophan B GF 1],639
21,CCAUCGCUAUUCGAUACCAGCUAAAUAUAAUAUAACCAGUGAUGUUGGUAUAUAAAUAUAAGCCCUUGGCAGCGAAUAGUGAUGG [Theophylline B K4 30],109
22,AGAUCUGUAACAGAUACCAGAGGACGAUGAUCGGAUAGUGAUGUUAUCUAUCAGUCGUCGCUCCCUUGGCAGCUGUUACAGAUCA [Omei KL Theo B SS B v2],662

row,Sequence,apparent KD of K4 kissing-loop reporter [nM]
1,UCGAAAUGCGACUCCUAGUUACACCGGGAAGGAGCGUGGAUAACCGCAGGUAGGUCGCCCGGAAGCCGGACCAGUGAUGUUGGUC [Exclusion Arginine A Gf 28],155
2,AAAAUAACCCAGUGAUGUUGGUCUCCAGAUACCAGCGACGAAAGUCGCCCUUGGCAGCUGUGGACGUACAAAAUAAGUACGUCCU,558
3,UACAUUGCAGUCUUCUUCGUCCUAGAUGACUAGGAUAUCAGGAAACUGAGAAGGAGUCACUGCAGUGAUGUUGCAGCUAGGACGA [KL-SSFMN-A9],105
4,GCUAGUUUGGAAGGAUAUUCGUGCGAUCAAGUCAAACUUUACUGAGGGCGUUUUGGAGUGAUGUUCGAAGAAGGUCCCUUACUUA [theeternabot_exclusion_KL_FMN_B_28],758
5,ACUGAAAGAUCUGAUACCAGACUUUUUGUAUUUAUUAAAACUAGUGAUGUUAGUUUAUCUGUCCCUUGGCAGCAGUUUCUACAGA [JR_Nu_ExcTheophyB_Sub023],117
6,CAUACGCAUGGAGGAUAUGAGAUUACUCAUAUUAUUUAAUAUUCUCAGUGAUGUUGAGAUAUAAACUCAGAAGGCCAUGUGUAUG [Ex FMN B 1],153
7,GCGGCGGGCCAAGGAUAUAUUUUGGAGUGAUGUUGUUCAUUUAUUUGAGCUAGUGAUGUUGGUCGAAUAGAAGGUGGCCCGCCGC [whbob_Ex_FMNB__2th219],46
8,UGUAAGCGCGUAGAUACCAGCAGACGAGUGAUGUUCAAGAGAUUAAGGAAAAGAAAGUAAUGCCCUUGGCAGCUAAUCAUAAGCG [whbob_Ex_Theo_B_sa93],363
9,GCCGUACGCAUGGAUACCAGUCUUAGAGUGAUGUUCUAAUCGAUUGCGCCUGGAUCAAUGGACCCUUGGCAGCCAUGCGUACGGC,112
10,UUUCGGCUCUGAGGAUAUUCGGACAAAUAUAGUGAUGUUGUAUAAGGAGGAGGGUGUUGGCAGUGAGGAGAAGGCAGAGGAGGAU [#07 K4 FMN B Exclusion],214
11,UUUUUGGAGAAUUAUAGUGAUGUUAUGAAGGAGGAUAUCUGGAGAUGGAGAAGGCCUAGUGGCUCAGGGAUGGAGGGUGGGUGGG [ExFMNA.Y],301
12,CCAUUCUUUUACGAUACCAGUCUAAUAUAUUGAAUCAAAACCCUCGCCGAGUGAUGUUCGGACCCUUGGCAGCGUCUGCGAGAGG [xwxxtkmullin],498
13,UGACUGGACUGAAGGAGCGCGAAACUCCUAGUGAUGUUAGGAUAACGAGACAAAGUCUCGACGCAGGUAGGUCGCAGUCUAGUCU,120
14,AGAGUUAUGCGAGGAUAUGCGGUUAGUACUCAAAGAGUACUAACGCAGAGUGAUGUUCUGUGAAACGCAGAAGGUGCAUAACUCA [Omei KL FMN B SS B v3],229
15,GGUAGCAUGAUGGAUACCAGUCCAAAUGGAGUGAUGUUCCAACAACAGGUUAGGCUGCUGGACCCUUGGCAGCCGUCAUGCUACC,133
16,CGGACGGUAUCGGCCGCCACUCUGAAGACAGUGAUGUUGUCCGUGCAGUAUUUAGGAAAGCCGCGGAGGACCGGGAUGCGUCACU [theeternabot_sameState_KL_Trp_B_48],340
17,AGAUGACACGGAGGAUAUCCUAAUAUGGGUGAUGUUAGCGAUGUUGAAGGUGUAGUGAUGUUAUGCGGAGAAGGCCGUGUUGUUU [BDazzled - #22 - Exc. FMN B],96.1
18,AAACAUUGGUCGGAUACCAGCUGAUCGGAAACGAUCUUGCUGGAGUGAUGUUCCAAGUAAAGCCCUUGGCAGCCGACCGAUGAAA [MAT - Same State Theophlline B - Mod of Eli - D20],85.8
19,GGUAGUGCUAGCGAUACCAGUCAUAUCGCUCUGGAGUGAUGUUCCGGAACGUGCGGAGAAGACCCUUGGCAGCGCUUGACGGUGU [Exclusion Theophylline B GF5],298
20,UGAUACCAGACGGCCGCCACUAGAGCUAGCAAAGCUAGCAAGUGAUGUUUGAGGAGUGAUGUUCCUAGGACCGGGUCUGGUAUCU [TrypBX 2 #Palindromic #SwitchBubble #StaticStem],39.9
21,GGAUAGGACACAGGAUAUGGGCUAGGCAAGAAUAACUUGUCUAGCAAAUCCAUGAGGAGUGAUGUUCCAGAAGGGUGUCCUAUCG [FmnBX 1 C11+G75],86.7
